Results published in publication PMC10188367, “Improved cytosine base editors generated from TadA variants” (Nature Biotechnology, 2023).
Where a chain is given by its changes, count along the chain named. Numbers in names are those of the source.

Assays:
[1] = target: the molecule itself; assay: crystal structure; TadA*8.20 (0.15 mM) with 0.22 mM 13-nt ssDNA containing d8Az; PEG 3,350, ammonium acetate, Tris pH 8.5, 20 °C
[2] = target: the molecule itself; assay: crystal structure; TADAC-1.17 (0.15 mM) with 0.22 mM 13-nt ssDNA containing d8Az; PEG 3,350, Tacsimate pH 6, 20 °C
[3] = target: the molecule itself; assay: crystal structure; TADAC-1.19 (0.3 mM) without ssDNA; PEG 3,350, ammonium citrate tribasic pH 7.0, 20 °C
[4] = target: the molecule itself; assay: crystal structure; TADAC-1.14 (0.18 mM) without ssDNA; ammonium sulfate, HEPES pH 7.5, 20 °C

B1: TadA*8.20 (enzyme, E. coli)
chain: MSEVEFSHEYWMRHALTLAKRARDEREVPVGAVLVLNNRVIGEGWNRAIGLHDPTAHAEIMALRQGGLVMQNYRLYDATLYSTFEPCVMCAGAMIHSRIGRVVFGVRNAKTGAAGSLMDVLHHPGMNHRVEITEGILADECAALLCRFFRMPRRVFNAQKKAQSSTD
notes: E. coli tRNA adenosine deaminase TadA, laboratory-evolved variant TadA*8.20 of ABE8.20-m; 167 residues; Crystallised with a 13-nt ssDNA containing 2-deoxy-8-azanebularine; zinc enzyme; also called deaminase of ABE8.20-m; ABE8.20 TadA*; source: E. coli BL21 Star (DE3), purified (Ni-NTA, Ulp1 cleavage, reverse Ni-NTA, heparin, SEC); not shown: His, N-terminal, cleaved; SUMO, N-terminal, cleaved
For B1, the “stoichiometry N” value [1] was 2.

B2: TADAC-1.17 (enzyme, E. coli)
chain: B1 chain with T17A, A48G, S82T, A142E
notes: E. coli TadA variant: TadA*8.20 with T17A, A48G, S82T and A142E relative to TadA*8.20; 167 residues; the rows below are written against wild-type TadA; Crystallised with a 13-nt ssDNA containing 2-deoxy-8-azanebularine; also called deaminase of CABE-T1.17; source: E. coli BL21, purified as described for TadA*8.20; not shown: His, N-terminal, cleaved; SUMO, N-terminal, cleaved
With B2 the “stoichiometry N” value [2] was 2.

B3: TADAC-1.19 (enzyme, E. coli)
chain: B1 chain with E27G, I49N
notes: E. coli TadA variant: TadA*8.20 with E27G and I49N relative to TadA*8.20; 167 residues; the rows below are written against wild-type TadA; Crystallised without ssDNA; also called TADAC-T1.19; source: E. coli BL21, purified as described for TadA*8.20; not shown: His, N-terminal, cleaved; SUMO, N-terminal, cleaved
In the case of B3, the “stoichiometry N” value [3] is reported as 2.

B4: TADAC-1.14 (enzyme, E. coli)
chain: B1 chain with S2H, I49K, Y76I, G112H
notes: E. coli TadA variant: TadA*8.20 with S2H, I49K, Y76I and G112H relative to TadA*8.20; Y76I brings position 76 back to the wild-type residue; 167 residues; the rows below are written against wild-type TadA; Crystallised without ssDNA; also called deaminase of CABE-T1.14; source: E. coli BL21 Star (DE3), purified (Ni-NTA, heparin, SEC; Ulp1 tag cleavage and reverse Ni-NTA omitted); not shown: …
For B4, the “stoichiometry N” value [4] was 2.
